Data published in patent US20250051407A1, “De novo designed sequence-specific DNA binding proteins” (University of Washington, priority 2023, published 2025).
Entries after “also recorded” stand apart in the source; their conditions may differ.

B1: DBP56: designed DNA-binding protein, SEQ ID NO: 30, DNA target E (protein)
chain: PPPTPFEVAGARIKEERAKLGLTQAELAKVAGVGQATVSRIEKGRKCSWELIEKIFEALKKV
B2: DBP60: designed DNA-binding protein, SEQ ID NO: 34, DNA target E (protein)
chain: DIEKIAKAVKELREELGLTQAEFAKKIGIGQGTLSRFEKGGVLSPKTMERLLKALEKEFGFDVKK
B3: DBP5: designed DNA-binding protein, SEQ ID NO: 3, DNA target A (protein)
chain: GFGKAVKAKRAELGLTQAEFAERAGLSRRTIIRIEQGKVKATSTTAEKIAAALGTTVQELEQA
B4: DBP89: designed DNA-binding protein, SEQ ID NO: 48, DNA target A (protein)
chain: SPAAFDKLTARELAVARLVAQGLPNREIAAALHISPRAVEAHLRKIYRKLGIRRRRELAALLA
B5: DBP43: designed DNA-binding protein, SEQ ID NO: 17, DNA target G (protein)
chain: MEELKKLLESGDPKLQGEAVKKIREKLGLTQREFGKKIGVGQAKVSRIEAGKIKLTPELKEKILE
B6: DBP47: designed DNA-binding protein, SEQ ID NO: 21, DNA target D (protein)
chain: MTPEERERAKEIGREIRELRRERGLTQRELADLLGVSRSTVSDIESGRRLPSEELLRRIREILGV
B7: DBP62: designed DNA-binding protein, SEQ ID NO: 36, DNA target F (protein)
chain: KEELEKLLKIIESLPKKFREVIILKFVEGLSYTEIAERLGVSRGAVYSRLRSALKKIEEALKK

Assays:
13 unique dsDNA targets = assay: All-by-all yeast surface display screen of DBP design hits; type: binding; conditions: for Target sequence preference: 13 unique dsDNA targets; for Number of the 13 tested DNA target sequences preferentially bound: including designed target sequence; for Binding specificity versus design models: all-by-all screen with Rosetta-predicted motifs
Method: And an all-by-all screen of DBP design hits to 13 unique dsDNA targets was performed (FIG. 4, table 2). […] To try to understand these observed binding preferences, each tested DNA sequence was threaded onto each design complex model at all possible base pair alignments, the alternative complex models were relaxed with Rosetta™, and the model with the most favorable Rosetta™ ΔΔG was selected.
Saccharomyces cerevisiae EBY100 strain cultures were grown in C-Trp-Ura medium supplemented with 2% (w/v) glucose. For induction of expression, yeast cells were centrifuged at 6,000 g for 1 min and resuspended in SGCAA medium supplemented with 0.2% (w/v) glucose at the cell density of 1×10^7 cells per ml and induced at 30° C. for 16-24 h. Cells were washed with PBSF (PBS with 1% (w/v) BSA) and labeled with biotinylated targets using two labeling methods: with-avidity and without-avidity labeling. For the with-avidity method, the cells were incubated with biotinylated target, together with anti-c-Myc fluorescein isothiocyanate (FITC, Miltenyi Biotech) and streptavidin-phycoerythrin (SAPE, ThermoFisher). The concentration of SAPE in the with-avidity method was used at one-quarter of the concentration of the biotinylated targets. For the without-avidity method, the cells were first incubated with biotinylated targets, washed and secondarily labeled with SAPE and FITC.
(§1) For yeast display characterization of individual designs, including competition assays, DNA sequences encoding the proteins of interest were purchased as Integrated DNA Technologies (IDT) E-Blocks™, transformed into yeast cells, and incubated in 96 well culture plates. Labeling with biotinylated dsDNA targets and SAPE/FITC was performed in a 96 well plate format. For yeast display competition assays, labeling was performed without avidity using 1 μM biotinylated dsDNA duplex oligos and an excess of 8 μM non-biotinylated competitor dsDNA duplex oligos. […] Flow cytometry analysis was performed with an Attune NxT™ flow cytometer with autosampler. Flow cytometry data analysis was performed using custom python code and the CytoFlow™ python package. For each individual sample, gating of the expression population was performed using the CytoFlow™ Gaussian Mixture Model and the ratio of SAPE channel intensity to FITC channel intensity (binding signal/expression signal) was calculated for all gated expression events of the sample.

[1] = system: biotinylated target dsDNA with non-biotinylated competitor dsDNA; assay: Yeast display competition assay with base-substituted competitor dsDNA; type: binding; conditions: all possible base mutations at each position of the competitor oligo
Text: We used a yeast display competition assay to characterize the DNA binding site specificity of a subset of the designs (FIG. 1A-E, left; FIG. 5). Addition of non-biotinylated competitor dsDNA to biotinylated target sequence reduced binding signal by flow cytometry (FIG. 1A-E, middle). […] For example, in DBP6 (FIG. 1A) R31 and R36 in the design model form bidentate hydrogen bonds with the guanines of base pair positions G12 and C9, respectively, while T32 forms a hydrogen bond with C10.
as §1

[2] = system: synTF-specific cis-regulatory elements (CRE) in HEK293T cells; assay: Transcriptional activation by synTFs in HEK293T cells (ENGRAM); type: cell-based; conditions: DBP fused to GCN4 dimerization domain and VP64; HEK293T cells expressing PEmax; dependent on spacing between motifs
Text: Next, we investigated whether the DBPs can be used as activators in mammalian cells. A set of synthetic transcription factors (synTFs) were created by fusing the GCN4 dimerization domain and the VP64 activation domain to the C-termini of DBPs 9, 35opt, 48, 57, and 60 which recognize 3 unique motifs. The dimerization domain allows the DBPs to recognize a palindromic target sequence consisting of two binding motifs, improving the binding affinity to the DNA sequence (FIG. 2C). We created synTF specific cis-regulatory elements (CRE) with 4 repeats spaced by 6 bp to drive the expression of downstream genes, and used the ENGRAM (43) recording technology to measure the activity of the synTFs in HEK293 cells. In ENGRAM, each CRE drives the expression of a uniquely barcoded pegRNA, which upon expression is recorded into the DNA TAPE at the HEK3 locus by prime-editor (PEmax); the activity of individual synTFs can be measured as the abundance of the barcode on the DNA TAPE (FIG. 2C). We first tested 3 different spacings-1 bp, 3 bp, and 5 bp-between the palindromic binding motifs to maximize the recorder activity. 3 synTF specific recorders and 1 TCF-LEF-recorder (negative control) were mixed with ratio 2:2:2:1 and co-transfected with synTFs into the HEK293T cells expressing PEmax. Cells were harvested and analyzed 2 days post-transfection. After analyzing the barcode abundance on the DNA TAPE, we observed 3-5 fold activation for DBP9/DBP35 and DBP57/DBP60 (FIG. 2D).
HEK293T cells expressing PEmax™ were cultured in DMEM High glucose (GIBCO), supplemented with 10% Fetal Bovine Serum (Rocky Mountain Biologicals) and 1% penicillin-streptomycin (GIBCO). Cells were grown with 5% CO2 at 37° C. 1×10^5 cells were seeded on a 48-well plate a day before transfection. Enhancer plasmid and binder plasmid were mixed with a ratio of 2:1. Enhancer variants and background control were mixed with a ratio of 2:2:2:1. A total of 300 ng of plasmid were transfected using Lipofectamine™ 3000 (ThermoFisher, L3000015), following the manufacturer's protocol. Cells were harvested 2 days post-transfection. Genomic DNA was extracted based on the protocol described earlier (43). Briefly, cells were lysed using freshly prepared lysis buffer (10 mM Tris-HCl, pH 7.5; 0.05% SDS; 25 µg/ml protease (ThermoFisher)) for each well. The genomic DNA mixture was incubated at 50° C. for 1 h, followed by an 80° C. enzyme inactivation step for 30 min. The DNA TAPE was amplified from the genomic DNA directly for next generation sequencing. Recorded information was extracted via custom analysis code. Each enhancer has a unique barcode representing its activity. Transcription activation was measured as the fold change in the barcode abundance relative to the negative control barcode. All measurements were performed in triplicates.

| Molecule | Target sequence preference (13 unique dsDNA targets) | Number of the 13 tested DNA target sequences preferentially bound (13 unique dsDNA targets; 1 μM dsDNA with avidity) | Binding specificity versus design models (13 unique dsDNA targets) | other results |
| --- | --- | --- | --- | --- |
| DBP44: designed DNA-binding protein, SEQ ID NO: 18, DNA target G (KEERVLAALEAHPWSTLAEIAELTGLSRSTVSRILSRLRKEGKCDSRREGRKVRYWLVRR) | bound to most of the targets |  |  |  |
| DBP90: designed DNA-binding protein, SEQ ID NO: 49, DNA target A (NKYQLSLLESAFQSNRYPDISQRATLASQTGLPERRIKIWFQNRRQRWKRKK) |  |  |  | Binding to initial design target (13 unique dsDNA targets; yeast surface display, 1 μM dsDNA with avidity): bound weakly; Binding to alternate target sequence (13 unique dsDNA targets; yeast surface display, 1 μM dsDNA with avidity, alternate target H (DBP90), D (DBP48), C (DBP57)): strongly |
| DBP51: designed DNA-binding protein, SEQ ID NO: 25, DNA target E (MEADPAVVFGRRLRAARRAKGLTQAELAERAGLGQGTISRYEKGRTLPSPEQVEKLLAAL) |  | less than 3 | bound with specificity closely consistent with the design models |  |
| DBP83: designed DNA-binding protein, SEQ ID NO: 43, DNA target A (PREREILRLLAEGKNAWEIAQILNISVRTVRNHLRNAMRKLGARNRVQAVARALRLG) |  | less than 3 |  |  |
| DBP9: designed DNA-binding protein, SEQ ID NO: 6, DNA target B (DWERRCAYARRARKELGLTQAELGELAGVSRTTVSRIERGKPDVSEASVEAVLAVL) | strong preference for only their designed target sequence | less than 3 | bound with specificity closely consistent with the design models | DNA binding site specificity [1]: specificity for a 6 nucleotide stretch (TGCACA) with peripheral dependence on T8 and A13; Fold activation of synTFs measured as normalized barcode abundance in the DNA TAPE [2]: 3-5 fold |
| DBP23: designed DNA-binding protein, SEQ ID NO: 9, DNA target B (PLAELGKAIKEARKRKGLTQAEVAKAAGVSRATVQRLELGKAKSIRPDKLRAILEVVGL) | bound to most of the targets |  |  |  |
| DBP69: designed DNA-binding protein, SEQ ID NO: 38, DNA target C (MKEEGRKLKELRERLGLTQAELAEALGLGQSTISRLERGRKEISPEVWEKALALLE) |  | less than 3 | bound with specificity closely consistent with the design models |  |
| DBP52: designed DNA-binding protein, SEQ ID NO: 26, DNA target E (RPLTPAEVFGRELRRLRRAAGLTQAELAERAGIGQGTVSRYEHGRRLPSPEEQERLLAAL) | strong preference for 2 or 3 of the sequence targets |  |  |  |
| B1 |  | less than 3 | bound with specificity closely consistent with the design models | DNA binding site specificity [1]: specificities consistent with the designed sidechain-base interactions |
| B2 | strong preference for 2 or 3 of the sequence targets | less than 3 | bound with specificity closely consistent with the design models | Fold activation of synTFs measured as normalized barcode abundance in the DNA TAPE [2]: 3-5 fold |
| B3 |  |  | bound with specificity closely consistent with the design models |  |
| B4 | bound to most of the targets |  |  |  |
| B5 |  |  | bound with specificity closely consistent with the design models |  |
| B6 |  | less than 3 | bound with specificity closely consistent with the design models |  |
| B7 | strong preference for only their designed target sequence | less than 3 | bound with specificity closely consistent with the design models | DNA binding site specificity [1]: dependent on bases peripheral to the binding site (e.g. C11); also recorded: exhibited specificity for its target site |
